Consider one substance from patent US20070286858A1.

A word on the EC50: it is the concentration giving half of the maximal effect. The Kd is a measure of binding affinity in units of concentration.

Test [1] has as its target human RAGE, full length (human) (UniProt Q15109). Description: cell-based ELISA, 293 cells transfected with human RAGE. A general note: An ELISA detects its analyte on a solid surface through an enzyme-linked reagent.
Test [2] deals with cynomolgus monkey RAGE (cynomolgus monkey (Macaca fascicularis)). The experiment in a line: cell-based ELISA, 293 cells transfected with cynomolgus monkey RAGE.
The target in a further test is hLox1-Fc (human) (UniProt P78380). Description: direct binding ELISA, receptor coated at 1 µg/ml, antibody at 20 µg/ml.
For test [3], the target named is human RAGE-Fc fusion protein (human) (UniProt Q15109). Described as above.
The target in a further test is mLox1-Fc (mouse) (UniProt Q9EQ09). The test is described as above.
The target of another test is rhB7-H1-Fc (human) (UniProt Q9NZQ7). Described as above.
The target of another test is rhICAM-1-Fc (human) (UniProt P05362). The description is as above.
For the next test, the target named is rhNCAM-1 (human) (UniProt P13591). The test is described as above.
In test [4] the target is rhTLR4 (C-terminal His tag) (human) (UniProt O00206). Described as above.
The next test has as its target rhVCAM-1 (human) (UniProt P19320). The test is described as above.
The target in test [5] is soluble human streptavidin-tagged RAGE (human) (UniProt Q15109). The experiment in a line: BIACORE capture assay, antibody on CM5 chip, hRAGE-SA 0-100 nM in solution.
Test [6] concerns the target human RAGE-Fc fusion protein (human) (UniProt Q15109). Description: antibody competition ELISA on hRAGE-Fc; competitor biotinylated XT-M4.
Test [7] addresses soluble human streptavidin-tagged RAGE (human) (UniProt Q15109). The experiment in a line: BIACORE capture, hRAGE-SA over captured antibody, 1:1 Langmuir global fit, FC3. (In SPR one partner is held on a chip, and binding of the other changes the refractive index at the surface.)
The target in test [8] is murine RAGE-strep tag fusion protein (mouse) (UniProt Q62151). The experiment in a line: BIACORE capture, SA-Mu RAGE over captured antibody, 1:1 Langmuir global fit, FC2.
The target is the same in test [9]. Description: BIACORE capture, SA-Mu RAGE over captured antibody, 1:1 Langmuir global fit, FC3.
Test [10] has the same target. Description: BIACORE capture, SA-Mu RAGE over captured antibody, 1:1 Langmuir global fit, FC4.
The target of test [11] is soluble human streptavidin-tagged RAGE (human) (UniProt Q15109). The experiment in a line: BIACORE capture, hRAGE-SA over captured antibody, 1:1 Langmuir global fit, row Average.
Test [12] deals with murine RAGE-strep tag fusion protein (mouse) (UniProt Q62151). The experiment in a line: BIACORE capture, SA-Mu RAGE over captured antibody, 1:1 Langmuir global fit, row Average.
Test [13] deals with human RAGE-Fc fusion protein (human) (UniProt Q15109). Description: ligand competition ELISA, panel Blocks hRAGE-Fc interaction with HMGB1; blocked ligand HMGB1.
For test [14] the target is unchanged. Description: ligand competition ELISA, panel Blocks hRAGE-Fc interaction with S100-A; blocked ligand S100-A.
Test [15] shares this target. The experiment in a line: ligand competition ELISA, panel Blocks hRAGE-Fc interaction with S100-B; blocked ligand S100-B.
The target is the same in test [16]. Description: ligand competition ELISA, panel Blocks hRAGE-Fc interaction with A-beta; blocked ligand amyloid beta 1-42 peptide.

Chain of murine RAGE-strep tag fusion protein (mouse) (Q62151 other isoform, or with tags, fused parts or gaps): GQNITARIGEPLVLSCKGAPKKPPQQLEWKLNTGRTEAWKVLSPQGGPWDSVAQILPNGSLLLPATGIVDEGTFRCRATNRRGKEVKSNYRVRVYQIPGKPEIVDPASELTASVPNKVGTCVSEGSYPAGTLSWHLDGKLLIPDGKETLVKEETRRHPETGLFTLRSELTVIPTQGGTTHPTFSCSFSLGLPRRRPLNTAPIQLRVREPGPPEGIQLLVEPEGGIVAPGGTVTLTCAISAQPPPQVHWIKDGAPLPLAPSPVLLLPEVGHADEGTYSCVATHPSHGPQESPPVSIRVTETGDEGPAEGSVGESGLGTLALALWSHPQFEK
Chain of rhVCAM-1 (human) (P19320 25-698 limits assumed): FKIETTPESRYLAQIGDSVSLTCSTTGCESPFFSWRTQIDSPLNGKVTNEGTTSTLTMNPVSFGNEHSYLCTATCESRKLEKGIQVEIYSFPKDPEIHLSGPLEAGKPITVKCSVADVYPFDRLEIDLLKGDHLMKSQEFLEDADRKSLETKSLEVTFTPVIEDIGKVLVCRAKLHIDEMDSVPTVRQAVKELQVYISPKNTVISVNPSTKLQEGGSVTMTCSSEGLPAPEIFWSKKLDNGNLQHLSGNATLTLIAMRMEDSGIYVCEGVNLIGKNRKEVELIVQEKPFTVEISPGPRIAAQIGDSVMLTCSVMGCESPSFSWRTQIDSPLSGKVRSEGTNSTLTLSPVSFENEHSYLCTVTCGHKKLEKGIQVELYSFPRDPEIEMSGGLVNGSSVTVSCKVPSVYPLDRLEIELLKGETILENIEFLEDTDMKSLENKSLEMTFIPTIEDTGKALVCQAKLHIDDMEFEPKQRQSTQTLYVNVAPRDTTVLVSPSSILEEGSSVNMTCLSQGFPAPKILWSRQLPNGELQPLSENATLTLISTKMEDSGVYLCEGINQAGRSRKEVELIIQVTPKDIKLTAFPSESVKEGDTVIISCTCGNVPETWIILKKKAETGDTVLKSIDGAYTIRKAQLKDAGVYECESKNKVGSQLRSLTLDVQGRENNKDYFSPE
Chain of mLox1-Fc (mouse) (Q9EQ09 60-363): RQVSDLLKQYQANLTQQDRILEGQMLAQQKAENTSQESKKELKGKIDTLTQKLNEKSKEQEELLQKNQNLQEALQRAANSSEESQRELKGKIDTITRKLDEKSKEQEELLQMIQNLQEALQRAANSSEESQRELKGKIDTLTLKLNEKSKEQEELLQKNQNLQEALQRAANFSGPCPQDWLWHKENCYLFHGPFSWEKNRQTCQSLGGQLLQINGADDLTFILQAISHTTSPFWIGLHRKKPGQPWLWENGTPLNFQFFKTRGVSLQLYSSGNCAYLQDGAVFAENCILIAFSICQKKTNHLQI
Chain of rhNCAM-1 (human) (P13591 other isoform, or with tags, fused parts or gaps limits assumed): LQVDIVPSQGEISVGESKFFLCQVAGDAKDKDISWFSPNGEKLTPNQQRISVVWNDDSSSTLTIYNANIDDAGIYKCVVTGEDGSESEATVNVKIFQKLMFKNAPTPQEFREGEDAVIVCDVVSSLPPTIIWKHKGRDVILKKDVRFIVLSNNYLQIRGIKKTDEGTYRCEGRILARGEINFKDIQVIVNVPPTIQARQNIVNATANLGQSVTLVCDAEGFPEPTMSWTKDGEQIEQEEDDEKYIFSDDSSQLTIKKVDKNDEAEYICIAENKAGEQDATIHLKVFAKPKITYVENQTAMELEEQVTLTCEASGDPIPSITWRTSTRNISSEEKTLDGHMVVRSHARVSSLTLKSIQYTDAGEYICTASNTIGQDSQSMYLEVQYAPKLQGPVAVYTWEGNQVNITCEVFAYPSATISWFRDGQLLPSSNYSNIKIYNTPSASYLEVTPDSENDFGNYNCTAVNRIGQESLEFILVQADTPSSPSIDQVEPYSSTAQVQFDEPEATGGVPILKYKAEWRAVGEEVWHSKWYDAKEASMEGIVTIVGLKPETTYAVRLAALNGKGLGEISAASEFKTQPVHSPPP
Chain of rhTLR4 (C-terminal His tag) (human) (O00206 24-631 limits assumed): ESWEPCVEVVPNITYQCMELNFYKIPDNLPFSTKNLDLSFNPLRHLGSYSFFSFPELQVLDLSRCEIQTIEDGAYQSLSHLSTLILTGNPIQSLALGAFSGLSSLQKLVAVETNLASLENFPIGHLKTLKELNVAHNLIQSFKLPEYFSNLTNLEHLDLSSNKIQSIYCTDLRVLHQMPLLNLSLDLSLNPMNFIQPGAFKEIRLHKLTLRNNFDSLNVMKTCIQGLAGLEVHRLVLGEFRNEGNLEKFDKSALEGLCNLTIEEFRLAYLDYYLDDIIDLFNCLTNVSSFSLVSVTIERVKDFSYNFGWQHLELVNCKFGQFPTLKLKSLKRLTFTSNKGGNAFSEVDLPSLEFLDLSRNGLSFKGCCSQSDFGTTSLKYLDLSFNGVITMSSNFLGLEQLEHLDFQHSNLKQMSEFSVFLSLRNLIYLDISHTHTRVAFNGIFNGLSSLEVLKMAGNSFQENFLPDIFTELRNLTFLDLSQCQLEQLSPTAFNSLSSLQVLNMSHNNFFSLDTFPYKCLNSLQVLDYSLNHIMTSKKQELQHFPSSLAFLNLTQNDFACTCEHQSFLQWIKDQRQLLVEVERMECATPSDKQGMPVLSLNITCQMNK
Chain of rhICAM-1-Fc (human) (P05362 28-480): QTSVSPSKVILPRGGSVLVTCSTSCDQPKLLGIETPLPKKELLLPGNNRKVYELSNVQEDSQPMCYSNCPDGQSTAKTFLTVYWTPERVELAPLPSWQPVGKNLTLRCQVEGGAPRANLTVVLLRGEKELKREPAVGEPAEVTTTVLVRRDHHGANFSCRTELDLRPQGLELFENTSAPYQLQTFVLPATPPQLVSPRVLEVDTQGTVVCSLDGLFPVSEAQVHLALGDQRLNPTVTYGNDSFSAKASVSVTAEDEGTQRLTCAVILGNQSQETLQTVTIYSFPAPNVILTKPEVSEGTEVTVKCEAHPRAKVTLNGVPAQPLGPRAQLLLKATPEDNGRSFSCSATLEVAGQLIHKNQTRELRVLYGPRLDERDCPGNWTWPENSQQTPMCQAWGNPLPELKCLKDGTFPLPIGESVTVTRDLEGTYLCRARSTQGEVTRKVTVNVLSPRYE
Chain of rhB7-H1-Fc (human) (Q9NZQ7 19-239): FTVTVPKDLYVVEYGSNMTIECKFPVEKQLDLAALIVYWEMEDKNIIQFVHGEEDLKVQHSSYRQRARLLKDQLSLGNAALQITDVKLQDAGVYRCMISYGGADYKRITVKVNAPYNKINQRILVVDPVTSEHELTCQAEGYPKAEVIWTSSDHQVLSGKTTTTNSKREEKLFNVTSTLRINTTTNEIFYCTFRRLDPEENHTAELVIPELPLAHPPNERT

Consider “chimeric antibody XT-M4 (from UniProt P01857 1-330)”, for which the EC50 was 0.8 nM in test [1] and 1.66 nM in [2]. Also, the OD450 came to 0.017 with hLox1-Fc (human); 3.8 in test [3]; 0.01 with mLox1-Fc (mouse); 0.003 with rhB7-H1-Fc (human); 0.004 with rhICAM-1-Fc (human); 0.006 with rhNCAM-1 (human). The OD450 in test [4] stood at 0; with rhVCAM-1 (human), 0.004. In test [5], the Ka came to 1.77e+08 M⁻¹. The equilibrium dissociation constant (Kd) in [5] stood at 5.66 nM; in test [7] it was 7.33 nM; in test [8] it was 1.9 nM; in test [9], 1.9 nM; in test [10], 2 nM; in [11], 7.91 nM. Further, the Kd in test [12] worked out at 1.9 nM. In addition, the IC50 (read off the curve) came to 0.4 µg/mL in test [6]; 0.1 µg/mL in [13]; 0.09 µg/mL in test [14]; 0.08 µg/mL in [15]; 0.2 µg/mL in test [16].
